Results on one substance are retold here after paper PMC2289352.

This test concerns the target S1 triple mutant containing all three substitutions L108D, L112D, and V117D. Put plainly: SEC. On the technique in general: Size exclusion chromatography separates by hydrodynamic size, large species first.

Where only a bound is given, the exact number is not on record here.

For “S1 triple mutant containing all three substitutions L108D, L112D, and V117D (domain or fragment)”, the protein eluting in the void volume of Sephacryl S200 (self-association) is above 50%.
